Four molecules from PMC3433420 can be followed below.

The target of assay [1] is ErbB4 pY906 phosphopeptide, rhodamine-labelled (human). Put plainly: fluorescence polarisation; saturation binding in solution: rhodamine peptide fixed at 10 nM, protein titrated 0.002-10 uM, 20 min at room temperature; assay buffer 20 mM HEPES, 100 mM KCl, 0.1% Tween-20, 5 mM DTT, pH 7.8; apparent KD.
Assay [2] has as its target MET pY1313 phosphopeptide, rhodamine-labelled. The description is as above.
Assay [3] has as its target ErbB1 pY801 phosphopeptide, rhodamine-labelled (human). The description is as above.
Assay [4] has as its target phosphopeptides corresponding to ErbB4 intracellular tyrosine sites (human). The assay is described as follows: fluorescence polarisation; saturation binding in solution; rhodamine-labeled peptide fixed at 10 nM, protein titrated 0.002-10 µM (twelve two-fold dilutions); 20 minutes at room temperature in the dark; assay buffer 20 mM HEPES, 100 mM KCl, 0.1% Tween-20, 5 mM DTT, pH 7.8; apparent KD; assay detection threshold of 20 µM.

Assay [5] addresses phosphopeptides corresponding to ErbB2 intracellular tyrosine sites (human). The description is as above.
Assay [6] addresses phosphopeptides corresponding to ErbB1 intracellular tyrosine sites (human). The assay is described as above.

B1: SHC3 SH2 domain (domain or fragment)
chain: WYQGEMSRKEAEGLLEKDGDFLVRKSTTNPGSFVLTGMHNGQAKHLLLVDPEGTIRTKDRVFDSISHLINHHLESSLPIVSAGSELCLQQPV
On to B1, for which the Kd in assay [1] worked out at 0.54 µM.

B2: TNS3 SH2 domain (domain or fragment)
chain: WYKADISREQAIAMLKDKEPGSFIVRDSHSFRGAYGLAMKVATPPPSVLQLNKKAGDLANELVRHFLIECTPKGVRLKGCSNEPYFGSLTALVCQHSITPLALPCKLLIPE
Take B2: the Kd is 5.89 µM in assay [2] and 5.35 µM in assay [3].

B3: VAV2 SH2 domain (domain or fragment)
chain: WFAGNMERQQTDNLLKSHASGTYLIRERPAEAERFAISIKFNDEVKHIKVVEKDNWIHITEAKKFDSLLELVEYYQCHSLKESFKQLDTTLKYPY
As for B3, the Kd in assay [2] was determined as 17 µM.

B4: GRAP2 SH2 domain (domain or fragment)
chain: WFHEGLSRHQAENLLMGKEVGFFIIRASQSSPGDFSISVRHEDDVQHFKVMRDNKGNYFLWTEKFPSLNKLVDYYRTNSISRQKQIFLRDRT
Regarding B4, the Kd in assay [4], in assay [5] and in assay [6] was 1 µM throughout.
